Where a chain is given by its changes, count along the chain named. Numbers in names are those of the source.
B1: P1AE1690_Fab, humanized anti-FAP clone 212 variant VH1G2a/VL1G1a (Fab, V domains shown)
VH: QVQLVQSGAEVKKPGASVKVSCKASGYTLTDYNMDWVRQAPGKSLEWIGDIYPNTGGTIYNQKFKGRVTMTIDKSTSTVYMELSSLRSEDTAVYYCTRFRGIHYAMDYWGQGTTVTVSS
VL: EIVLTQSPATLSLSPGERATLSCRASESVDNYGLSFINWFQQKPGQAPRLLIYGTSNRGSGIPARFSGSGSGTDFTLTISSLEPEDFAVYFCQQSNEVPYTFGGGTKVEIK
notes: Fab
B2: P1AE1689_Fab, humanized anti-FAP clone 212 variant VH1G1a/VL1G1a (Fab, V domains shown)
VH: B1 VH with K43Q, S44G, K74T
VL: B1 VL
notes: Fab
B3: P1AE1693_Fab, humanized anti-FAP clone 212 variant VH1G2a/VL1G2a (Fab, V domains shown)
VH: B1 VH
VL: B1 VL with A47P
notes: Fab
B4: P1AE1702_Fab, humanized anti-FAP clone 212 variant with VL2G2a (Fab, V domains shown)
VH: EVQLLESGGGLVQPGGSLRLSCAASGYTLTDYNMDWVRQAPGKGLEWVGDIYPNTGGTIYNQKFKGRFTISIDKSKNTAYLQMNSLRAEDTAVYYCTRFRGIHYAMDYWGQGTTVTVSS
VL: DIQMTQSPSSLSASVGDRVTITCRASESVDNYGLSFINWFQQKPGQPPKLLIYGTSNRGSGVPSRFSGSGSGTDFTLTISSLQPEDFAMYFCQQSNEVPYTFGGGTKVEIK
notes: Fab
B5: P1AF0873, CD40 (P1AE0817) x FAP (P1AE1689) (1+1) C-terminal crossfab fusion (bispecific antibody, human IgG1, kappa, L234A L235A)
light 1: QVQLVQSGAEVKKPGASVKVSCKASGYTLTDYNMDWVRQAPGQGLEWIGDIYPNTGGTIYNQKFKGRVTMTIDTSTSTVYMELSSLRSEDTAVYYCTRFRGIHYAMDYWGQGTTVTVSSASVAAPSVFIFPPSDEQLKSGTASVVCLLNNFYPREAKVQWKVDNALQSGNSQESVTEQDSKDSTYSLSSTLTLSKADYEKHKVYACEVTHQGLSSPVTKSFNRGEC
light 2: DIVMTQTPLSLSVTPGQPASISCRSSQSLVHSNGNTFLHWYLQKPGQSPQLLIYTVSNRFSGVPDRFSGSGSGTDFTLKISRVEAEDVGVYFCSQTTHVPWTFGGGTKVEIKRTVAAPSVFIFPPSDRKLKSGTASVVCLLNNFYPREAKVQWKVDNALQSGNSQESVTEQDSKDSTYSLSSTLTLSKADYEKHKVYACEVTHQGLSSPVTKSFNRGEC
heavy: not shown
chain: not shown
B6: P1AE0998, humanized anti-CD40 antibody VH1c/VL1d, huIgG1_LALA_PG (antibody, V domains shown)
VH: QVQLVQSGAEVKKPGASVKVSCKASGYSFTGYYIHWVRQAPGQSLEWMGRVIPNAGGTSYNQKFKGRVTLTVDKSISTAYMELSRLRSDDTAVYYCAREGIYWWGHGTTVTVSS
VL: DVVVTQTPLSLSVTPGQPASISCRSSQSLVHSNGNTFLHWYLQKPGQSPQLLIYTVSNRFSGVPDRFSGSGSGTDFTLKISRVEAEDVGVYFCSQTTHVPWTFGGGTKLEIK
notes: huIgG1 with effector silent Fc (P329G, L234A, L235A)
B7: P1AE0999, humanized anti-CD40 antibody VH1d/VL1a, huIgG1_LALA_PG (antibody, V domains shown)
VH: B6 VH with T71S, H106Q
VL: B6 VL with V2I, V4M, L109V
notes: as for B6
B8: P1AE1005, humanized anti-CD40 antibody VH1b/VL1d, huIgG1_LALA_PG (antibody, V domains shown)
VH: B6 VH with Q43K, H106Q
VL: B6 VL
notes: as for B6
B9: P1AE1001, humanized anti-CD40 antibody VH1a/VL1b, huIgG1_LALA_PG (antibody, V domains shown)
VH: B6 VH with H106Q
VL: B6 VL with V2I, L109V
notes: as for B6
B10: P1AE1003, humanized anti-CD40 antibody VH1b/VL1b, huIgG1_LALA_PG (antibody, V domains shown)
VH: B6 VH with Q43K, H106Q
VL: B6 VL with V2I, L109V
notes: as for B6
B11: P1AE1000, humanized anti-CD40 antibody VH1d/VL1c, huIgG1_LALA_PG (antibody, V domains shown)
VH: B6 VH with T71S, H106Q
VL: B6 VL with L109V
notes: as for B6
B12: P1AE1007, humanized anti-CD40 antibody VH1d/VL1b, huIgG1_LALA_PG (antibody, V domains shown)
VH: B6 VH with T71S, H106Q
VL: B6 VL with V2I, L109V
notes: as for B6
B13: P1AE1002, humanized anti-CD40 antibody VH1b/VL1a, huIgG1_LALA_PG (antibody, V domains shown)
VH: B6 VH with Q43K, H106Q
VL: B6 VL with V2I, V4M, L109V
notes: as for B6
B14: P1AE1004, humanized anti-CD40 antibody VH1b/VL1c, huIgG1_LALA_PG (antibody, V domains shown)
VH: B6 VH with Q43K, H106Q
VL: B6 VL with L109V
notes: as for B6
B15: P1AE1006, humanized anti-CD40 antibody VH1c/VL1b, huIgG1_LALA_PG (antibody, V domains shown)
VH: B6 VH
VL: B6 VL with V2I, L109V
notes: as for B6
B16: P1AE2734, CD40 (P1AE0817) x FAP (P1AE1689) (2+1) with different C-terminal crossfab fusion (bispecific antibody, human IgG1, kappa, L234A L235A)
light 1: EIVLTQSPATLSLSPGERATLSCRASESVDNYGLSFINWFQQKPGQAPRLLIYGTSNRGSGIPARFSGSGSGTDFTLTISSLEPEDFAVYFCQQSNEVPYTFGGGTKVEIKSSASTKGPSVFPLAPSSKSTSGGTAALGCLVKDYFPEPVTVSWNSGALTSGVHTFPAVLQSSGLYSLSSVVTVPSSSLGTQTYICNVNHKPSNTKVDKKVEPKSC
light 2: B5 light 2 with R128E, K129Q
heavy 1: not shown
heavy 2: QVQLVQSGAEVKKPGASVKVSCKASGYSFTGYYIHWVRQAPGQSLEWMGRVIPNAGGTSYNQKFKGRVTLTVDKSISTAYMELSRLRSDDTAVYYCAREGIYWWGQGTTVTVSSASTKGPSVFPLAPSSKSTSGGTAALGCLVKDYFPEPVTVSWNSGALTSGVHTFPAVLQSSGLYSLSSVVTVPSSSLGTQTYICNVNHKPSNTKVDKKVEPKSCDKTHTCPPCPAPEAAGGPSVFLFPPKPKDTLMISRTPEVTCVVVDVSHEDPEVKFNWYVDGVEVHNAKTKPREEQYNSTYRVVSVLTVLHQDWLNGKEYKCKVSNKALGAPIEKTISKAKGQPREPQVCTLPPSRDELTKNQVSLSCAVKGFYPSDIAVEWESNGQPENNYKTTPPVLDSDGSFFLVSKLTVDKSRWQQGNVFSCSVMHEALHNHYTQKSLSLSPG
notes: bivalent for CD40, monovalent for FAP; also called VH-Ckappa fused to Fc

What follows are binders tested against T1, biotinylated recombinant human FAP (human, UniProt Q12884 26-760, biotinylated) (assay: SPR (Biacore)).
T1 construct: also called biotinylated human FAP

How did the Kd turn out when B1 was run?
The Kd was 0.114 nM.

And the “T ½” value?
Its value is 3.05 h.

What about the koff of the same binder?
Its koff is 6.3e-05 s⁻¹.

What about the kon of the same binder?
Its kon is 551000 M⁻¹ s⁻¹.

With B2 as the binder, how does the Kd read?
Its Kd is 0.095 nM.

What about the “T ½” value of the same binder?
The value was 4.57 h.

And the koff?
Its koff is 4.21e-05 s⁻¹.

And the kon?
The kon was 443000 M⁻¹ s⁻¹.

For B3, which Kd is on record?
Its Kd is 0.135 nM.

What about the “T ½” value of the same binder?
The value was 2.68 h.

And the koff?
The koff was 7.18e-05 s⁻¹.

What about the kon of the same binder?
Its kon is 530000 M⁻¹ s⁻¹.

Which Kd does the source give for B4 here?
Its Kd is 0.213 nM.

And the “T ½” value?
Its value is 1.8 h.

What about the koff of the same binder?
The koff was 0.000107 s⁻¹.

What about the kon of the same binder?
Its kon is 502000 M⁻¹ s⁻¹.

These binders were tested against T2, human CD40 expressed on cells (human, UniProt P25942 21-277) (assay: cell-based or functional assay).

For B5, which “EC50, two cell line bridging assay (SEAP of HEK-Blue CD40L reporter cells with FAP-expressing WM-266-4 cells)” value is on record?
Its value is 0.0265 nM.

The binders below were run against T2, human CD40 expressed on cells (assay: flow cytometry, Raji cells;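 note: cell binding of antibodies to Raji cells detected by flow cytometry using an Alexa488-labelled anti-human IgG secondary antibody, primary incubation 1 h at 4 °C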).
Protocol: CD40 positive cells (Raji cells) were detatched from the culture bottle using Trypsin and were counted using a Casy cell counter. After pelleting at 4° C., the cells were resuspended in FACS Buffer (2.5% FCS in PBS), adjusted to 2.0E+06 cells/mL, and dispensed to 96-well PP V-bottom-plates (25 μL/well=5.0E+04Zellen/well).
The CD40 specific antibodies were adjusted to 20 μg/mL in FACS buffer, resulting in a final concentration of 10 μg/mL. 20 μl were added to 25 μl cell suspension and incubated for 1 h at 4° C. The cells were then washed twice in FACS buffer. After washing, the cells were resuspended in 50 μL FACS-buffer containing secondary antibody (<huIgG>-Alexa488, c=10 μg/mL) and incubated 1 h bei 4° C. The cells were then washed twice in FACS buffer and resuspended in 70 μl/well FACS buffer for measurement using a FACS Canto (BD, Pharmingen).

Which EC50 does the source give for B6 here?
The EC50 was 0.12 µg/mL.

With B7 as the binder, how does the EC50 read?
Its EC50 is 0.15 µg/mL.

With B8 as the binder, how does the EC50 read?
The EC50 was 0.11 µg/mL.

How did the EC50 turn out when B9 was run?
Its EC50 is 0.08 µg/mL.

How did the EC50 turn out when B10 was run?
Its EC50 is 0.13 µg/mL.

B11 was tested. Which EC50 did it give?
Its EC50 is 0.14 µg/mL.

Which EC50 does the source give for B12 here?
The EC50 was 0.12 µg/mL.

How did the EC50 turn out when B13 was run?
The EC50 was 0.13 µg/mL.

For B14, which EC50 is on record?
Its EC50 is 0.14 µg/mL.

With B15 as the binder, how does the EC50 read?
The EC50 was 0.14 µg/mL.

The binders below were run against T3, human CD40 extracellular domain with C-terminal His-AviTag (human, UniProt P25942 21-193) (assay: SPR, antibody captured, CD40 ECD analyte;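 note: biacore SPR at 25 °C in PBS-T pH 7.4, CD40 ECD analyte from 300 nM in 1:3 series, 300 s association, up to 1200 s dissociation, double-referenced, Langmuir 1:1 fit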).
T3 construct: not shown: C-terminal His-AviTag

Which results are given for B6?
Kd: 3.3 nM; koff: 0.00896 s⁻¹; kon: 2.7e+06 M⁻¹ s⁻¹

Which results are given for B7?
Kd: 2.4 nM; koff: 0.00592 s⁻¹; kon: 2.45e+06 M⁻¹ s⁻¹

Which results are given for B8?
Kd: 3.2 nM; koff: 0.00816 s⁻¹; kon: 2.58e+06 M⁻¹ s⁻¹

Which results are given for B9?
Kd: 2.7 nM; koff: 0.00681 s⁻¹; kon: 2.56e+06 M⁻¹ s⁻¹

For B10, which Kd is on record?
Its Kd is 2.5 nM.

What about the koff of the same binder?
The koff was 0.00606 s⁻¹.

What about the kon of the same binder?
The kon was 2.46e+06 M⁻¹ s⁻¹.

How did the Kd turn out when B11 was run?
Its Kd is 3.2 nM.

What about the koff of the same binder?
Its koff is 0.00862 s⁻¹.

What about the kon of the same binder?
The kon was 2.68e+06 M⁻¹ s⁻¹.

With B12 as the binder, how does the Kd read?
The Kd was 2.7 nM.

What about the koff of the same binder?
The koff was 0.00662 s⁻¹.

And the kon?
Its kon is 2.5e+06 M⁻¹ s⁻¹.

With B13 as the binder, how does the Kd read?
Its Kd is 2.2 nM.

And the koff?
The koff was 0.00557 s⁻¹.

And the kon?
Its kon is 2.54e+06 M⁻¹ s⁻¹.

Which results are given for B14?
Kd: 3 nM; koff: 0.00795 s⁻¹; kon: 2.63e+06 M⁻¹ s⁻¹

Which results are given for B15?
Kd: 2.6 nM; koff: 0.00651 s⁻¹; kon: 2.53e+06 M⁻¹ s⁻¹

These binders were tested against T4, His-tagged human FAP ectodomain (human, UniProt Q12884 27-760) (assay: SPR, His-tagged human FAP ectodomain as ligand).
T4 construct: also called hu FAP ectodomain+poly-lys-tag+his6-tag; His-tagged FAP antigen

Which results are given for B16?
Kd: 0.21 nM; koff: 5.2e-05 s⁻¹; kon: 250000 M⁻¹ s⁻¹

Reference: patent US20250320305A1 (Hoffmann-La Roche, published 2025)
